Laboratory results as given in PMC7349027.

Key:
Experiment in all cases: non-reducing SDS-PAGE with Western blot
[1] = target: truncated gp120 from the HIV-1 clade C isolate (gp120t-C) (HIV-1 clade C)
[2] = target: truncated gp120 from the HIV-1 clade B isolate (gp120t-B) (HIV-1 clade B)
[3] = target: truncated gp120 from the HIV-1 clade J isolate (gp120t-J) (HIV-1 clade J)
[4] = target: soluble truncated gp120 from the CRF02_AG isolate (Sgp120t-AG) (HIV-1 clade CRF02_AG)

truncated gp120 from the HIV-1 clade C isolate (gp120t-C) (domain or fragment)
stoichiometry N [1]: 2

truncated gp120 from the HIV-1 clade B isolate (gp120t-B) (domain or fragment)
stoichiometry N [2]: 2

truncated gp120 from the HIV-1 clade J isolate (gp120t-J) (domain or fragment)
stoichiometry N [3]: 2

soluble truncated gp120 from the CRF02_AG isolate (Sgp120t-AG) (domain or fragment)
stoichiometry N [4]: 2
